Here are results for 13 molecules from patent publication US20250277051A1 (HANGZHOU UNOGEN BIOTECH, published 2025).

Assay [1] deals with T1, recombinant human CD38 protein (human, UniProt P28907 43-300, biotin labeled).
T1 construct: Biotin labeled and captured on streptavidin coated plates; also called human CD38 target
As to the kind of experiment: ELISA on recombinant human CD38, OD 450 nm. On the technique in general: ELISA stands for enzyme-linked immunosorbent assay.
Protocol: (§1) Biotin labeled recombinant CD38 protein was bound to streptavidin coated ELISA plates to capture the antigen on the solid phase. Varying concentrations of the tested anti-CD38 antibodies were then added to the coated plates and the bound antibodies were detected and quantified using standard ELISA protocols. […] Biotin labeled cynomolgus recombinant CD38 protein was bound to a streptavidin coated ELISA plate to capture the antigen on the solid phase. Varying concentrations of the tested anti-CD38 antibodies were then added to the coated plates and the bound antibodies were detected and quantified using standard ELISA protocols.

Assay [2] deals with T1, recombinant human CD38 protein. Kind of assay: ELISA on recombinant human CD38, OD 450 nm. The source holds these as a separate data set.
Protocol: as §1
The target in assay [3] is T2, recombinant mouse CD38 protein (mouse, UniProt P56528 45-304, limits assumed, biotin labeled).
T2 construct: also called mouse recombinant CD38 protein; mouse CD38 antigen
T2 sequence (looked up): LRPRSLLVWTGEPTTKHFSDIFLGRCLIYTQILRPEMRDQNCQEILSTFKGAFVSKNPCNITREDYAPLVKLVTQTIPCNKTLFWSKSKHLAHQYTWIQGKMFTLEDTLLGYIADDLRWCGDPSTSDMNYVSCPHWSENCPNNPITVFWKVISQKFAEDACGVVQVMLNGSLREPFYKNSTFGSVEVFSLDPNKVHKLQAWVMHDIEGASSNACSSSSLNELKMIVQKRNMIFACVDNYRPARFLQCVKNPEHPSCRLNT
Kind of assay: ELISA, biotinylated recombinant mouse CD38 captured on a streptavidin plate, OD 450 nm.
Protocol: as §1

The target in assay [4] is T3, recombinant cynomolgus monkey CD38 protein (cynomolgus monkey, UniProt Q5VAN0 44-301, biotin labeled).
T3 construct: Biotin labeled and captured on a streptavidin coated plate; also called cynomolgus monkey CD38 antigen; cynomolgus recombinant CD38 protein
As to the kind of experiment: ELISA, biotinylated recombinant cynomolgus monkey CD38 captured on a streptavidin plate, OD 450 nm.
Protocol: as §1

The target of assay [5] is T1, recombinant human CD38 protein. Kind of assay: ELISA, biotinylated recombinant human CD38 captured on a streptavidin plate, OD 450 nm.
Assay [6] deals with T4, recombinant cynomolgus monkey CD3 delta and epsilon domain protein (cynomolgus monkey, UniProt Q95LI5 22-117; Q95LI8 22-105, biotin labeled).
T4 construct: Biotin labeled and captured on a streptavidin coated ELISA plate; also called cynomolgus monkey recombinant CD3 protein, consisting of CD3 epsilon and CD3 delta chains
T4 sequence (Q95LI5 22-117, stated change not applied, chain 1 of 2): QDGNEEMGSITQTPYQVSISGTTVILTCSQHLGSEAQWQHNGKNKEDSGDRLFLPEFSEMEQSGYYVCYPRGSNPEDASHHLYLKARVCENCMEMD
T4 sequence (Q95LI8 22-105, stated change not applied, chain 2 of 2): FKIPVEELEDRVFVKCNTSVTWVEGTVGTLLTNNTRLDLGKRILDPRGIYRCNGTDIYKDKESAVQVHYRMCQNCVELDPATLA
As to the kind of experiment: ELISA, recombinant antigen on plate.
Protocol: (§2) The y axis is the binding response expressed in optical density at 450 nm absorbance units. The x axis is the concentration of the molecules tested.
(§3) Biotin labeled cynomolgus monkey recombinant CD3 protein, consisting of CD3 epsilon and CD3 delta chains, was bound to a streptavidin coated ELISA plate to capture the antigen on the solid phase. Varying concentrations of the tested anti-CD3 antibody was then added to the coated plates and the bound antibodies were detected and quantified using standard ELISA protocols.

The target of assay [7] is T5, recombinant human CD3 delta and epsilon domain protein (human, UniProt P07766 23-126; P04234 22-105, biotin labeled).
T5 construct: Biotin labeled and captured on a streptavidin coated ELISA plate; also called human recombinant CD3 protein, consisting of CD3 epsilon and CD3 delta chains
T5 sequence (P07766 23-126, stated change not applied, chain 1 of 2): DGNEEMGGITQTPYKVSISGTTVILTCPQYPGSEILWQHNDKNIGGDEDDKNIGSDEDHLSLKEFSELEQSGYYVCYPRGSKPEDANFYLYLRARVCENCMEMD
T5 sequence (P04234 22-105, stated change not applied, chain 2 of 2): as the sequence (Q95LI8 22-105, stated change not applied, chain 2 of 2) above, with V5I, K15N, V20I, T32S, N33D, N34I, A64T, N74S, L83V counted along it
Kind of assay: ELISA, biotinylated recombinant human CD3 epsilon/delta captured on a streptavidin plate, OD 450 nm.
Description: Biotin labeled human recombinant CD3 protein, consisting of CD3 epsilon and CD3 delta chains, was bound to a streptavidin coated ELISA plate to capture the antigen on the solid phase.

Assay [8] addresses T4, recombinant cynomolgus monkey CD3 delta …. As to the kind of experiment: ELISA, biotinylated recombinant cynomolgus monkey CD3 epsilon/delta captured on a streptavidin plate, OD 450 nm.
Protocol: as §2, §3

B1: SEQ ID NO 21 (VHH)
VHH: QMQLVQSGAEVKKTGSSVKVSCKGSGRTFRNYPMAWFRQAPGQEREFMGGITWVGASTLYAQKAQDRVTITRDRSMSTAYMELSSLRSEDTAMYSCAAGRGIVAGRIPAEYADWGQGTLVTVSS
notes: VHO single domain; also called CD38 5FIOK VHO2
With B1, the binding result in assay [1] is listed as “binds”.

B2: SEQ ID NO 29 (VHH)
VHH: DVQLQESGGGSVQAGGSLTLSCTASGWLFRLASMGWYRQAPGKEREMIAVITTGGRTNYKDSVQGRFIITRDNTKSTVTLQMNRLKPEDTAVYYCNTSMPVVGADEWGQGTRVTVSS
notes: VHO single domain; also called CD38 5F21 VHO5
For B2, in assay [2], the binding result is reported as “binds”.

B3: SEQ ID NO 4 (VHH)
VHH: EVQLQESGGGLVQAGHSLRLSCVGSGSRFDNYAMGWFRQAPGKEREFVAAISWSSGTTRYLDTVKGRFTISRDNAKSTVYLQMNSLKPEDTAVYYCAARYQPRYYDSGDMDGYEYDNWGQGTQVTVSS
notes: Variable-heavy-only (VHO) single domain; also called CD38 5FIO VHO1
One may read the EC50 (read off the curve) as the concentration needed to bring the measured effect to its halfway point. Regarding B3, the binding result in assay [3] and in assay [5] was “binds” in each case. Further, in assay [4], the “EC50 (read off the curve)” value is roughly 0.4 nM.

B4: SEQ ID NO: 4×SP34 v8 (bispecific antibody, V domains shown)
VHH: EVQLQESGGGLVQAGHSLRLSCVGSGSRFDNYAMGWFRQAPGKEREFVAAISWSSGTTRYLDTVKGRFTISRDNAKSTVYLQMNSLKPEDTAVYYCAARYQPRYYDSGDMDGYEYDNWGQGTQVTVSS
VH: EVQLVESGGGLVQPGGSLKLSCAASGFTFNTYAMNWVRQAPGKGLEWVARIRSKYNNYATYYADSVKDRFTISRDDSKNTAYLQMNNLKTEDTAVYYCVRHGNFGNSYVAWFAYWGQGTLVTVSS
VL: QTVVTQEPSLTVSPGGTVTLTCRSSTGAVTTSNYANWVQQKPGQAPRGLIGGTNKRAPGTPARFSGSLLGGKAALTLSGVQPEDEAEYYCALWYSNLWVFGGGTKLTVL
notes: CD38 VHO arm paired with a CD3 arm
Take B4: the “EC50 (read off the curve)” value in assay [5] is roughly 0.1 nM.

B5: SEQ ID NO 20 (VHH)
VHH: DVQLQESGGGLVQAGHSLRLSCVGSGDRFDNYAMGWFRQAPGKEREFVAAISWSSGTTRYLDTVKGRFTISRDNAKSTVYLQMNSLKPEDTAVYYCAARYQNRFYDSGDMDGYEYDNWGQGTQVTVSS
notes: VHO single domain; also called CD38 5FIO VHO5
Turning to B5, in assay [1], the binding result was “binds”.

B6: SEQ ID NO 5 (VHH)
VHH: EVQLQESGGGLVQAGGSLRLSCTGSGRTFRNYPMAWFRQAPGKEREFVAGITWVGASTLYADFAKGRFTISRDNAKNTVYLQMNSLKPEDTAVYSCAAGRGIVAGRIPAEYADWGQGTQVTVSS
notes: also called CD38 5F1K VHO1
In the case of B6, the binding result in assay [3] was “no binding (tested: about 60 nM)”; in assay [4], “binds”; in assay [5], “binds”.

B7: SEQ ID NO 24 (VHH)
VHH: DVQLQESGGGLVQAGGSLRLSCTGSGRTFYLYPMAWFRQAPGKEREFVAGITWVGASTNYADFAKGRFTISRDNAKNTVYLQMNSLKPEDTAVYSCAAGRGITAGRIPAEYADWGQGTQVTVSS
notes: VHO single domain; also called CD38 5FIOK VHO5
For B7, in assay [1], the binding result is on record as “binds”.

B8: SEQ ID NOs: 2 and 3 (mAb) (antibody, V domains shown)
VH: QVQLVQSGAEVAKPGTSVKLSCKASGYTFTDYWMQWVKQRPGQGLEWIGTIYPGDGDTGYAQKFQGKATLTADKSSKTVYMHLSSLASEDSAVYYCARGDYYGSNSLDYWGQGTSVTVSS
VL: DIVMTQSHLSMSTSLGDPVSITCKASQDVSTVVAWYQQKPGQSPRRLIYSASYRYIGVPDRFTGSGAGTDFTFTISSVQAEDLAVYYCQQHYSPPYTFGGGTKLEIK
notes: also called CD38 LC1; CD38 HC1
For B8, the binding result in assay [3] is recorded as “no binding (tested: about 60 nM)”.

B9: SEQ ID NO 6 (VHH)
VHH: EVQLQESGGGSVQAGGSLTLSCTASGLLFRLASMGWYRQAPGKERELIATITVGGKTNYKDSVQGRFIITRDNTGDNTKSTVTLQMNRLKPEDTAVYYCNTASPAVGADTWGQGTRVTVSS
notes: also called CD38 5F21 VHO1
Take B9: the binding result in assay [3] is on record as “no binding (tested: about 60 nM)”; in assay [4], “no binding (tested: about 30 nM)”; in assay [5], “binds”.

B10: SEQ ID NO 18 (VHH)
VHH: QVTLKESGPVLVKPTETLTLTCTGSGSRFDNYAMGWFRQPPGKEREFLAAISWSSGTTRYSTSLKSRLTISRDTSKSQVVLTMTNMDPVDTATYYCAARYQPRYYDSGDMDGYEYDNWGQGTLVTVSS
notes: VHO single domain; also called CD38 5FIO VHO3
For the molecule B10, in assay [1], the binding result is recorded as “binds”.

B11: SEQ ID NO 17 (VHH)
VHH: QVQLVQSGAEVKKPGASVKVSCKASGSRFDNYAMGWFRQAPGQEREFMGAISWSSGTTRYAQKVQGRVTMTRDTSTSTVYMELSSLRSEDTAVYYCAARYQPRYYDSGDMDGYEYDNWGQGTLVTVSS
notes: VHO single domain; also called CD38 5FIO VHO2
B11: the binding result in assay [1] was “binds”.

B12: SP34 (antibody, V domains shown)
VH: EVQLVESGGGLVQPGGSLKLSCAASGFTFNTYAMNWVRQAPGKGLEWVARIRSKYNNYATYYADSVKDRFTISRDDSKNTAYLQMNNLKTEDTAVYYCVRHGNFGNSYVSWFAYWGQGTLVTVSS
VL: QTVVTQEPSLTVSPGGTVTLTCRSSTGAVTTSNYANWVQQKPGQAPRGLIGGTNKRAPGTPARFSGSLLGGKAALTLSGVQPEDEAEYYCALWYSNLWVFGGGTKLTVL
notes: also called positive control anti-CD3 antibody
Turning to B12, in assay [6], the binding result is given as “binds”.

B13: SP34 v8 (antibody, V domains shown)
VH: EVQLVESGGGLVQPGGSLKLSCAASGFTFNTYAMNWVRQAPGKGLEWVARIRSKYNNYATYYADSVKDRFTISRDDSKNTAYLQMNNLKTEDTAVYYCVRHGNFGNSYVAWFAYWGQGTLVTVSS
VL: QTVVTQEPSLTVSPGGTVTLTCRSSTGAVTTSNYANWVQQKPGQAPRGLIGGTNKRAPGTPARFSGSLLGGKAALTLSGVQPEDEAEYYCALWYSNLWVFGGGTKLTVL
notes: also called SP34 v8 LC; SP34 v8 HC
On to B13, for which the binding result in assay [7] is recorded as “binds”. Besides, the “EC50 (read off the curve)” value in assay [8] was roughly 0.08 nM.
